How the values were obtained:
SOX9-NHMG [1] = molecular target: T1, SOX9-NHMG (UniProt Q04887 1-181); experiment: EMSA; highly cooperative homodimer; EMSA: 10 mM Tris-HCl pH 8.0, 0.1 mg/ml BSA, 50 uM ZnCl2, 100 mM KCl, 10% glycerol, 0.1% Igepal CA630, 2 mM beta-mercaptoethanol, 50 nM DNA, 4 h at 4 C; CD: 50 mM phosphate pH 8.0, 4 h at 4 C; conditions: protein: recombinant; tags: His6 or His-MBP fusion, removed by TEV; chain copies: 2; label: Cy5 forward strand
SOX9-NHMG [2] = molecular target: T1, SOX9-NHMG; experiment: EMSA; highly cooperative homodimer; cooperativity factor denoted infinite; EMSA: 10 mM Tris-HCl pH 8.0, 0.1 mg/ml BSA, 50 uM ZnCl2, 100 mM KCl, 10% glycerol, 0.1% Igepal CA630, 2 mM beta-mercaptoethanol, 50 nM DNA, 4 h at 4 C; CD: 50 mM phosphate pH 8.0, 4 h at 4 C; conditions: protein: recombinant; tags: His6 or His-MBP fusion, removed by TEV; chain copies: 2; label: Cy5 forward strand
SOX8-NHMG = SOX8-NHMG (UniProt Q04886 1-175); experiment: EMSA; homodimer, as cooperative as SOX9-NHMG; EMSA: 10 mM Tris-HCl pH 8.0, 0.1 mg/ml BSA, 50 uM ZnCl2, 100 mM KCl, 10% glycerol, 0.1% Igepal CA630, 2 mM beta-mercaptoethanol, 50 nM DNA, 4 h at 4 C; CD: 50 mM phosphate pH 8.0, 4 h at 4 C; conditions: protein: recombinant; tags: His6 or His-MBP fusion, removed by TEV; chain copies: 2; label: Cy5 forward strand
SOX10-DHMG = SOX10-DHMG (UniProt Q04888 61-180); experiment: as above; conditions: protein: recombinant; tags: His6 or His-MBP fusion, removed by TEV; chain copies: 2; label: Cy5 forward strand
SOX9-NHMG;SOX9-HMG = SOX9-NHMG;SOX9-HMG (;, UniProt Q04887;Q04887 1-181;103-181, |); experiment: EMSA; mixed dimer more prominent than SOX9-NHMG homodimer; EMSA: 10 mM Tris-HCl pH 8.0, 0.1 mg/ml BSA, 50 uM ZnCl2, 100 mM KCl, 10% glycerol, 0.1% Igepal CA630, 2 mM beta-mercaptoethanol, 50 nM DNA, 4 h at 4 C; CD: 50 mM phosphate pH 8.0, 4 h at 4 C; conditions: protein: recombinant;recombinant; tags: His6 or His-MBP fusion, removed by TEV;; copies: 1;1; label: Cy5 forward strand
SOX10-DHMG;SOX10-HMG = SOX10-DHMG;SOX10-HMG (;, UniProt Q04888;Q04888 61-180;102-180, |); experiment: EMSA; mixed dimer with single DIM; EMSA: 10 mM Tris-HCl pH 8.0, 0.1 mg/ml BSA, 50 uM ZnCl2, 100 mM KCl, 10% glycerol, 0.1% Igepal CA630, 2 mM beta-mercaptoethanol, 50 nM DNA, 4 h at 4 C; CD: 50 mM phosphate pH 8.0, 4 h at 4 C; conditions: protein: recombinant;recombinant; tags: His6 or His-MBP fusion, removed by TEV;N-terminal His6 (Methods, possibly only this construct); copies: 1;1; label: Cy5 forward strand
SOX8-NHMG;SOX10-HMG = SOX8-NHMG;SOX10-HMG (;, UniProt Q04886;Q04888 1-175;102-180, |); experiment: as above; conditions: protein: recombinant;recombinant; tags: His6 or His-MBP fusion, removed by TEV;N-terminal His6 (Methods, possibly only this construct); copies: 1;1; label: Cy5 forward strand
SOX8-NHMG;SOX8-HMG = SOX8-NHMG;SOX8-HMG (;, UniProt Q04886;Q04886 1-175;97-175, |); experiment: as above; conditions: protein: recombinant;recombinant; tags: His6 or His-MBP fusion, removed by TEV;; copies: 1;1; label: Cy5 forward strand
SOX8-NHMG;SOX9-HMG = SOX8-NHMG;SOX9-HMG (;, UniProt Q04886;Q04887 1-175;103-181, |); experiment: as above; conditions: protein: recombinant;recombinant; tags: His6 or His-MBP fusion, removed by TEV;; copies: 1;1; label: Cy5 forward strand
SOX10-DHMG;SOX8-HMG = SOX10-DHMG;SOX8-HMG (;, UniProt Q04888;Q04886 61-180;97-175, |); experiment: as above; conditions: protein: recombinant;recombinant; tags: His6 or His-MBP fusion, removed by TEV;; copies: 1;1; label: Cy5 forward strand
SOX10-DHMG;SOX9-HMG = SOX10-DHMG;SOX9-HMG (;, UniProt Q04888;Q04887 61-180;103-181, |); experiment: as above; conditions: protein: recombinant;recombinant; tags: His6 or His-MBP fusion, removed by TEV;; copies: 1;1; label: Cy5 forward strand
SOX9-NHMG;SOX10-HMG = SOX9-NHMG;SOX10-HMG (;, UniProt Q04887;Q04888 1-181;102-180, |); experiment: EMSA; heterodimer more prominent than SOX9-NHMG homodimer; EMSA: 10 mM Tris-HCl pH 8.0, 0.1 mg/ml BSA, 50 uM ZnCl2, 100 mM KCl, 10% glycerol, 0.1% Igepal CA630, 2 mM beta-mercaptoethanol, 50 nM DNA, 4 h at 4 C; CD: 50 mM phosphate pH 8.0, 4 h at 4 C; conditions: protein: recombinant;recombinant; tags: His6 or His-MBP fusion, removed by TEV;N-terminal His6 (Methods, possibly only this construct); copies: 1;1; label: Cy5 forward strand
SOX9-NHMG;SOX8-HMG = SOX9-NHMG;SOX8-HMG (;, UniProt Q04887;Q04886 1-181;97-175, |); experiment: as above; conditions: protein: recombinant;recombinant; tags: His6 or His-MBP fusion, removed by TEV;; copies: 1;1; label: Cy5 forward strand
SOX8-NHMG;SOX10-DHMG = SOX8-NHMG;SOX10-DHMG (;, UniProt Q04886;Q04888 1-175;61-180, |); experiment: EMSA; heterodimer band; EMSA: 10 mM Tris-HCl pH 8.0, 0.1 mg/ml BSA, 50 uM ZnCl2, 100 mM KCl, 10% glycerol, 0.1% Igepal CA630, 2 mM beta-mercaptoethanol, 50 nM DNA, 4 h at 4 C; CD: 50 mM phosphate pH 8.0, 4 h at 4 C; conditions: protein: recombinant;recombinant, tags: His6 or His-MBP fusion, removed by TEV;His6 or His-MBP fusion, copies: 1;1, label: Cy5 forward strand
SOX9-NHMG;SOX10-DHMG = SOX9-NHMG;SOX10-DHMG (;, UniProt Q04887;Q04888 1-181;61-180, |); experiment: as above; conditions: protein: recombinant;recombinant, tags: His6 or His-MBP fusion, removed by TEV;His6 or His-MBP fusion, copies: 1;1, label: Cy5 forward strand
SOX9-DHMG;SOX8-NHMG = SOX9-DHMG;SOX8-NHMG (;, UniProt Q04887;Q04886 60-181;1-175, |); experiment: as above; conditions: protein: recombinant;recombinant, tags: His6 or His-MBP fusion, removed by TEV;His6 or His-MBP fusion, copies: 1;1, label: Cy5 forward strand
SOX9-NHMG [3] = molecular target: T1, SOX9-NHMG; experiment: EMSA; homodimer, cooperativity factor ~100 (about 10-fold diminished); EMSA: 10 mM Tris-HCl pH 8.0, 0.1 mg/ml BSA, 50 uM ZnCl2, 100 mM KCl, 10% glycerol, 0.1% Igepal CA630, 2 mM beta-mercaptoethanol, 50 nM DNA, 4 h at 4 C; CD: 50 mM phosphate pH 8.0, 4 h at 4 C; conditions: protein: recombinant; tags: His6 or His-MBP fusion, removed by TEV; chain copies: 2; label: Cy5 forward strand

Measured: binding result

T1 sequence (Q04887 1-181): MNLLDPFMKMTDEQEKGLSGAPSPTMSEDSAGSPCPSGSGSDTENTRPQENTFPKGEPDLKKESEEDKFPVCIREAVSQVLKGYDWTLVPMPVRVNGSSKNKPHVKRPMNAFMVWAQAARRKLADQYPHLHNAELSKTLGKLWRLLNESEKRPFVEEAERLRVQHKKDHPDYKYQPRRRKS
SOX9-NHMG;SOX10-HMG, sequence (Q04887 1-181, chain 1 of 2): as the sequence (Q04887 1-181) above
SOX9-NHMG;SOX10-HMG, sequence (Q04887 other isoform, or with tags, fused parts or gaps |, chain 2 of 2): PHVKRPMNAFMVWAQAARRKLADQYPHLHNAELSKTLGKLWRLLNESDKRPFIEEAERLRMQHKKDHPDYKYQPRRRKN
SOX9-NHMG;SOX10-DHMG, sequence (Q04887 1-181, chain 1 of 2): as the sequence (Q04887 1-181) above
SOX9-NHMG;SOX10-DHMG, sequence (Q04887 other isoform, or with tags, fused parts or gaps |, chain 2 of 2): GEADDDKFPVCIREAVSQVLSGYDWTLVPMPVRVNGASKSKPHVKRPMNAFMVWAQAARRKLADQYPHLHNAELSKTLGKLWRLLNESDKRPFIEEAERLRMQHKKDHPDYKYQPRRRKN
SOX9-NHMG;SOX9-HMG, sequence (Q04887 1-181, chain 1 of 2): as the sequence (Q04887 1-181) above
SOX9-NHMG;SOX9-HMG, sequence (Q04887 103-181, chain 2 of 2): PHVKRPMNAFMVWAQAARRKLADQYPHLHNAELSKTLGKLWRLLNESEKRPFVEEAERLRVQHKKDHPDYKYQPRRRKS
SOX9-NHMG;SOX8-HMG, sequence (Q04887 1-181, chain 1 of 2): as the sequence (Q04887 1-181) above
SOX9-NHMG;SOX8-HMG, sequence (Q04887 103-181 N147S, chain 2 of 2): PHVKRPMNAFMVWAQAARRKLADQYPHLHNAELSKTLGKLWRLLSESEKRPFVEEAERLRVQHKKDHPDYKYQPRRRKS
SOX8-NHMG;SOX10-HMG, sequence (Q04886 1-175, chain 1 of 2): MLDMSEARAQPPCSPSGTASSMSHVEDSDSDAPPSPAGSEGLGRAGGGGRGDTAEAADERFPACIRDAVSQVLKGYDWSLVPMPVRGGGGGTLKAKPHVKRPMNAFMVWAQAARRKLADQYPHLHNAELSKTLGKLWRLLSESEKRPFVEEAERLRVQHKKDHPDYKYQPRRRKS
SOX8-NHMG, sequence (Q04886 1-175): as the sequence (Q04886 1-175, chain 1 of 2) above
SOX8-NHMG;SOX8-HMG, sequence (Q04886 1-175, chain 1 of 2): as above
SOX8-NHMG;SOX8-HMG, sequence (Q04886 97-175, chain 2 of 2): as the sequence (Q04887 103-181 N147S, chain 2 of 2) above
SOX8-NHMG;SOX10-DHMG, sequence (Q04886 1-175, chain 1 of 2): as the sequence (Q04886 1-175, chain 1 of 2) above
SOX8-NHMG;SOX9-HMG, sequence (Q04886 1-175, chain 1 of 2): as above
SOX8-NHMG;SOX9-HMG, sequence (Q04886 97-175 S141N, chain 2 of 2): as the sequence (Q04887 103-181, chain 2 of 2) above
SOX9-DHMG;SOX8-NHMG, sequence (Q04887 60-181, chain 1 of 2): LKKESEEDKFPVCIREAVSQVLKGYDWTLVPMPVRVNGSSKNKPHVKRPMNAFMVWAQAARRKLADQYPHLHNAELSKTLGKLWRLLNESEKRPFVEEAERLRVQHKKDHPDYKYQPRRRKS
SOX9-DHMG;SOX8-NHMG, sequence (Q04886 1-175, chain 2 of 2): as the sequence (Q04886 1-175, chain 1 of 2) above
SOX10-DHMG;SOX9-HMG, sequence (Q04888 other isoform, or with tags, fused parts or gaps |, chain 2 of 2): as the sequence (Q04887 103-181, chain 2 of 2) above
SOX10-DHMG;SOX8-HMG, sequence (Q04888 other isoform, or with tags, fused parts or gaps |, chain 2 of 2): as the sequence (Q04887 103-181 N147S, chain 2 of 2) above

B1: 3 bp spacer SOX dimer probe (dsDNA)
DNA 1: CGCCGAAAACAAAGGACCTTTGTTTTGCCG
DNA 2: CGGCAAAACAAAGGTCCTTTGTTTTCGGCG
binds: SOX9-NHMG [1]

B2: 5 bp spacer SOX dimer probe (dsDNA)
DNA 1: GCCGAAAACAAAGGATACCTTTGTTTTGCC
DNA 2: GGCAAAACAAAGGTATCCTTTGTTTTCGGC
binds: SOX9-NHMG [2]

B3: 4 bp spacer SOX dimer probe (dsDNA)
DNA 1: GCCGAAAACAAAGGAACCTTTGTTTTGCCG
DNA 2: CGGCAAAACAAAGGTTCCTTTGTTTTCGGC
not listed: SOX9-NHMG [1] | SOX9-NHMG [3]
binds: all other assays above

B4: 6 bp spacer SOX dimer probe (dsDNA)
DNA 1: CCGAAAACAAAGGATTACCTTTGTTTTGCC
DNA 2: GGCAAAACAAAGGTAATCCTTTGTTTTCGG
binds: SOX9-NHMG [3]

B5: 0 bp spacer SOX dimer probe (dsDNA)
DNA 1: CCGCCGTAACAATGCATTGTTGCCGCC
DNA 2: GGCGGCAACAATGCATTGTTACGGCGG
binds: SOX9-NHMG [3]

B6: 2 bp spacer SOX dimer probe (dsDNA)
DNA 1: CGCCGAAAACAAAGGCCTTTGTTTTGCCGC
DNA 2: GCGGCAAAACAAAGGCCTTTGTTTTCGGCG
binds: SOX9-NHMG [3]

B7: 1 bp spacer SOX dimer probe (dsDNA)
DNA 1: CCGCCGAACAATGTCATTGTTGCCGCC
DNA 2: GGCGGCAACAATGACATTGTTCGGCGG
binds: SOX9-NHMG [3]

From PMC4445065, “SOXE transcription factors form selective dimers on non-compact DNA motifs through multifaceted interactions between dimerization and high-mobility group domains”
